# Reference: US6512161
# Experiments:
# [1] = molecular target: either human or rabbit apoB; test: densitometry of non-reducing anti-apo(a) immunoblots, apoB/apo(a) transgenic rabbit plasma (n=3)
# [2] = molecular target: rabbit apolipoprotein B-100 (rabbit) (UniProt P17165); test: densitometry of non-reducing anti-apo(a) immunoblots, apo(a) transgenic rabbit plasma (n=3)
# Chain of UniProt P17165 (P17165 whole entry): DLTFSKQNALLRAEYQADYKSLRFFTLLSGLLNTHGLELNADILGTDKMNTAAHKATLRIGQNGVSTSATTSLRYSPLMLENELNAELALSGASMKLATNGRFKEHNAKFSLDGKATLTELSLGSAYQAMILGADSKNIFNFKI
percent of apo(a) covalently bound [1],percent of apo(a) migrating as free apo(a) [1],percent of apo(a) bound [2],percent of apo(a) free [2],Substance
80%,20%,,,human apolipoprotein(a) (from UniProt P08519 20-2040)
,,20%,80%,"human apolipoprotein(a), P08519 20-2040"
